Results on 7 molecules are retold here after patent US20210130452A1 (Merck KGaA, published 2021).

Like-named read-outs stand apart in the source and are kept apart here.

For experiment [1], the target named is T1, human IL-17F (human, UniProt Q96PD4 31-163).
T1 construct: made in Hek293 cells (GenBank AF384857); also called hIL-17F; hIL17F
T1 sequence: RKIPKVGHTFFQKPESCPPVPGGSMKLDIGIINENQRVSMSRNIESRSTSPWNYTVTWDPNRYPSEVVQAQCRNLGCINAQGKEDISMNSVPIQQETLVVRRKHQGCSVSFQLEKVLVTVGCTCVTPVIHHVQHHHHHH
As to the kind of experiment: AlphaScreen hIL-17F-IL-17RC; vs IL17MS13E02. (Bead proximity is the source of the signal in Alpha formats.)

For experiment [2], the target named is T2, human IL-17A (human, UniProt Q16552 24-155). As to the kind of experiment: cell-based or functional assay.
T2 sequence (Q16552 other isoform, or with tags, fused parts or gaps): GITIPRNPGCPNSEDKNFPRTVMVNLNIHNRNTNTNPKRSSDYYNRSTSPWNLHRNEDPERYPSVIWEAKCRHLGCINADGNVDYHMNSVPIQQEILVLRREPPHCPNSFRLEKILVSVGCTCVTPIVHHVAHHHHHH
Experiment [3] deals with T3, human IL-17A/F heterodimer (human, UniProt Q16552 24-155; Q96PD4 31-163, limits assumed). As to the kind of experiment: cell-based or functional assay.
The target in experiment [4] is T4, Cynomolgus monkey IL-17A (Cynomolgus monkey, UniProt A0A2K5TTB0 24-155).
T4 construct: also called cyno IL-17A; cIL-17A
As to the kind of experiment: SPR (Biacore) off-rate. For orientation: In SPR one partner is held on a chip, and binding of the other changes the refractive index at the surface.

In experiment [5] the target is T2, human IL-17A. The experiment can be described thus: SPR (Biacore) off-rate.
The target of experiment [6] is T3, human IL-17A/F heterodimer. As to the kind of experiment: SPR (Biacore) off-rate.
For experiment [7], the target named is T2, human IL-17A. As to the kind of experiment: AlphaScreen IL-17A-IL-17RA (average).
In experiment [8] the target is T2, human IL-17A. As to the kind of experiment: competition ELISA IL-17A-IL-17RA. In general terms: In an ELISA, binding on a coated surface is turned into a signal by an enzyme label.
Experiment [9] has as its target T1, human IL-17F. As to the kind of experiment: AlphaScreen hIL-17F-IL-17RC; vs IL17MS13B03.
The target of experiment [10] is T2, human IL-17A. As to the kind of experiment: AlphaScreen hIL-17A-IL-17RA; vs IL17MS13B03.
The target of experiment [11] is T4, Cynomolgus monkey IL-17A. The experiment can be described thus: SPR (Biacore) off-rate. The source holds these as a separate data set.
Experiment [12] has as its target T1, human IL-17F. As to the kind of experiment: SPR (Biacore) off-rate.
In experiment [13] the target is T2, human IL-17A. As to the kind of experiment: SPR (Biacore) off-rate. The source holds these as a separate data set.
For experiment [14], the target named is T5, Cynomolgus monkey IL-17F (Cynomolgus monkey, UniProt G7P4V0 31-163).
T5 construct: also called cyno IL-17F; cIL-17F
T5 sequence: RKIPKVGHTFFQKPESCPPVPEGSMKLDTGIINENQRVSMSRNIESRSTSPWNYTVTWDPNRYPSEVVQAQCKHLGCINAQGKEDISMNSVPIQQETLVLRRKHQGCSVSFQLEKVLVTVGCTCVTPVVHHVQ
As to the kind of experiment: SPR (Biacore) off-rate.

Experiment [15] deals with T3, human IL-17A/F heterodimer. As to the kind of experiment: SPR (Biacore) off-rate. The source holds these as a separate data set.
Experiment [16] has as its target T1, human IL-17F. As to the kind of experiment: cell-based or functional assay.
For experiment [17], the target named is T2, human IL-17A. The experiment can be described thus: cell-based or functional assay. The source holds these as a separate data set.
Experiment [18] has as its target T5, Cynomolgus monkey IL-17F. The experiment can be described thus: cell-based or functional assay.
In experiment [19] the target is T3, human IL-17A/F heterodimer. As to the kind of experiment: cell-based or functional assay. The source holds these as a separate data set.
For experiment [20], the target named is T1, human IL-17F. The experiment can be described thus: cell-based or functional assay. The source holds these as a separate data set.
Experiment [21] deals with T5, Cynomolgus monkey IL-17F. The experiment can be described thus: cell-based or functional assay. The source holds these as a separate data set.
Experiment [22] deals with T1, human IL-17F. As to the kind of experiment: AlphaScreen IL-17F-IL-17RC; vs IL17MS16A04.
In experiment [23] the target is T1, human IL-17F. The experiment can be described thus: SPR (Biacore) off-rate. The source holds these as a separate data set.
For experiment [24], the target named is T5, Cynomolgus monkey IL-17F. The experiment can be described thus: SPR (Biacore) off-rate. This is another data set of the same source.
For experiment [25], the target named is T6, human IL-17F (human, UniProt Q96PD4 31-163).
T6 construct: GenBank AF384857, expressed in Hek293 as 6-His C-terminal tagged protein; also called hIL-17F; IL-17F-6HIS
T6 sequence: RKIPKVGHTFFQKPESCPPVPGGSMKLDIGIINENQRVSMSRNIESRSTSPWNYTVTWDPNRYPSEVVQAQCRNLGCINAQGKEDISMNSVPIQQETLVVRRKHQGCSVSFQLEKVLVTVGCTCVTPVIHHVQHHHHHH
The experiment can be described thus: KinExA, 100 pM Nanobody.
Protocol: The affinity of a limited set of formatted Nanobodies was determined using the KinExA.

For experiment [26], the target named is T6, human IL-17F. The experiment can be described thus: SPR, IL-17F-Nanobody complex over captured IL-17RC.
Description: The receptor (IL-17RA or IL-17RC) was captured via its human Fc-tail by an anti-human IgG-Fc antibody coated on the chip.
The target in another experiment is T7, marmoset IL-17A (marmoset, IL-17A is a disulfide-linked homodimer. One chain is given.).
T7 chain: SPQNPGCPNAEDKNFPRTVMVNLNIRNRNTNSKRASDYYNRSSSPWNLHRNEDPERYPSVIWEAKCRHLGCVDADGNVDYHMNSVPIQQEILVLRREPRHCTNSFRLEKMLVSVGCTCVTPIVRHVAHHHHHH
As to the kind of experiment: ELISA, coated IL-17A.

Experiment [27] deals with T8, human IL-17A (human, UniProt Q16552 24-155).
T8 construct: secreted form (GenBank U32659) expressed in Hek293 with C-terminal 6-His; also called hIL-17A; IL-17A-6HIS
The experiment can be described thus: ELISA, coated IL-17A.
T8 sequence (Q16552 other isoform, or with tags, fused parts or gaps): as the sequence (Q16552 other isoform, or with tags, fused parts or gaps) above
Protocol: (§1) Binding of a selected panel of anti-IL-17 Nanobodies to IL-17 of other species was assessed using a binding ELISA. […] HRP (horseradish peroxidase) conjugated anti-myc (Serotec, MCA 2200P) was used for detection using esTMB as substrate.

Another experiment addresses guinea pig IL-17A (guinea pig). The experiment can be described thus: ELISA, coated IL-17A.
The target of the next experiment is T9, rat IL-17F (rat, UniProt Q5BJ95 29-161).
T9 sequence (looked up): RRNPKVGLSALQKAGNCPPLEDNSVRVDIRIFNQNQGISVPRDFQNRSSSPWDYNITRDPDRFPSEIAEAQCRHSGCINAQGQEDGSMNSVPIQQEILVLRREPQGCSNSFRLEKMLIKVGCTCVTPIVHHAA
As to the kind of experiment: ELISA, coated IL-17F.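 Also: binding ELISA on coated antigen from various species, with bound Nanobodies revealed by an HRP-linked anti-myc antibody and esTMB substrate.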

A further experiment deals with T10, marmoset IL-17F (marmoset, UniProt A6N6I9 31-163).
T10 sequence (looked up): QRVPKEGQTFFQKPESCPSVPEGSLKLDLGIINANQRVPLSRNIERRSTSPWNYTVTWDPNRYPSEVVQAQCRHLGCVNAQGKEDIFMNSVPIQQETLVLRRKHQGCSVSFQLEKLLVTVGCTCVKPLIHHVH
As to the kind of experiment: ELISA, coated IL-17F.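 Also: binding ELISA on coated antigen from various species, with bound Nanobodies revealed by an HRP-linked anti-myc antibody and esTMB substrate.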

The target of experiment [28] is T6, human IL-17F. As to the kind of experiment: ELISA, coated IL-17F.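 Also: binding ELISA on coated antigen from various species, with bound Nanobodies revealed by an HRP-linked anti-myc antibody and esTMB substrate.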
Protocol: as §1
Another experiment concerns the target T11, mouse IL-17F (mouse, UniProt Q7TNI7 29-161).
T11 sequence (looked up): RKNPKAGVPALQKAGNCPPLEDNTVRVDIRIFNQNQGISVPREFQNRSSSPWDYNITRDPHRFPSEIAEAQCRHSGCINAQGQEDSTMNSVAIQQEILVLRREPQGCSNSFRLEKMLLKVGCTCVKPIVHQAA
The experiment can be described thus: ELISA, coated IL-17F.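 Also: binding ELISA on coated antigen from various species, with bound Nanobodies revealed by an HRP-linked anti-myc antibody and esTMB substrate.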

T3 sequence (Q16552 24-155 limits assumed, one chain of several): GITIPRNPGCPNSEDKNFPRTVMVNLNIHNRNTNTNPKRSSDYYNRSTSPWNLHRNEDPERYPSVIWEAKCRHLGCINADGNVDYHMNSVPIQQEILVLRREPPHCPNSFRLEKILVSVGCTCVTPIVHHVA
T4 sequence (A0A2K5TTB0 entry or part of it): as the sequence (Q16552 24-155 limits assumed, one chain of several) above, with T3A, P8S, N34S, I77V, N78K, P104R counted along it
Protocol for guinea pig IL-17A: as §1
Protocol for marmoset IL-17A: as §1
Protocol for marmoset IL-17F: as §1
Protocol for mouse IL-17F: as §1
Protocol for rat IL-17F: as §1

B1: IL17MS3071 (VHH)
VHH: EVQLVESGGGLVQPGGSLRLSCAASGRTYDALGWLRQAPGKEREFVAAISGSGDDTYYADSVKGRFTISRDNSKNTLYLQMNSLRPEDTAVYYCATRRGLYYVWDANDYENWGQGTLVTVSS
notes: variant of IL17MS13E02; Kabat numbering
As for B1, the “IC50 fold difference vs WT” value in the experiment with human IL-17F [1] amounted to 0.3 fold.

B2: IL17MS3060 (VHH)
VHH: DVQLVESGGGLVQPGGSLRLSCTASGTIVNIHVMGWYRQAPGKQRELVALIFSGGSADYADSVKGRFTISRDNSKNTVYLQMNSLRPEDTAVYYCAAEIGYYSGGTYYSSEAHWGQGTLVTVSS
notes: variant of IL17MS04G01; basic = A14P, A74S, E81Q, K83R, Q108L
Consider B2, for which the “IC50 cell based assay hIL-17A (IL-6, HT-1080 cells)” value with human IL-17A [2] was 0.93 nM. Moreover, the “IC50 cell based assay hIL-17A/F (IL-6, HT-1080 cells)” value in experiment [3] was 5.5 nM. Also, the koff in the experiment with Cynomolgus monkey IL-17A [4] came to 0.000154 s⁻¹; with human IL-17A [5], 0.00015 s⁻¹; in experiment [6] it was 0.000209 s⁻¹. In addition, the IC50 with human IL-17A [7] amounted to 0.081 nM; in the experiment with human IL-17A [8], 0.181 nM.

B3: IL17MS04G01 (VHH)
VHH: EVQLVESGGGLVQAGGSQRLSCTASGTIVNIHVMGWYRQAPGKQRELVALIFSGGSADYADSVKGRFTISRDNAKNTVYLEMNSLKAEDTAVYYCAAEIGYYSGGTYYSSEAHWGQGTQVTVSS
notes: Class 2 Nanobody, wild type; also called WT
As to B3, the “IC50 cell based assay hIL-17A (IL-6, HT-1080 cells)” value with human IL-17A [2] was found to be 0.71 nM. The “IC50 cell based assay hIL-17A/F (IL-6, HT-1080 cells)” value in experiment [3] worked out at 7.55 nM. Further, the koff with Cynomolgus monkey IL-17A [4] was 0.00032 s⁻¹; with human IL-17A [5] it was 0.000116 s⁻¹; in experiment [6], 0.00017 to 0.00023 s⁻¹. Also, the IC50 in the experiment with human IL-17A [7] is 0.093 nM; with human IL-17A [8] it was 0.122 nM.

B4: IL17MS3068 (VHH)
VHH: EVQLVESGGGLVQPGGSLRLSCAASGRASSINWMGWFRQAPGKEREFVAGIRWSDAYTEYADSVKGRFTISRDNSKNTVYLQMNSLRPEDTAVYYCVLDLSTVRYWGQGTLVTVSS
notes: variant of IL17MS13B03; Kabat numbering
B4: the “IC50 fold difference compared to WT” value with human IL-17F [9] was 0.2 fold; with human IL-17A [10], 1.2 fold.

B5: IL17MS3067 (VHH)
VHH: DVQLVESGGGLVQPGGSLRLSCAASGRASSINWMGWFRQAPGKEREFVAGIRWSDAYTEYADSVKGRFTISRDNSKNTVYLQMNSLRPEDTAVYYCVLDLSTVRYWGQGTLVTVSS
notes: as for B4
As to B5, the koff is 0.000126 s⁻¹ with Cynomolgus monkey IL-17A [11]; 0.00138 s⁻¹ with human IL-17F [12]; 0.000133 s⁻¹ in the experiment with human IL-17A [13]; 0.00166 s⁻¹ with Cynomolgus monkey IL-17F [14]; 0.000183 s⁻¹ in experiment [15]. For the same molecule, the results for the “IC50 fold difference compared to WT” value with human IL-17F [9] and in the experiment with human IL-17A [10] were 0.2 fold and 1.3 fold, respectively. The “IC50 cell based assay hIL17F” value with human IL-17F [16] was found to be 35 nM. The “IC50 cell based assay hIL17A” value with human IL-17A [17] was found to be 0.7 nM. Further, the “IC50 cell based assay cyno IL17F” value in the experiment with Cynomolgus monkey IL-17F [18] stood at 13 nM. The “IC50 cell based assay hIL17A/F” value in experiment [19] was found to be 1.8 nM.

B6: IL17MS3063 (VHH)
VHH: DVQLVESGGGLVQPGGSLRLSCAASGRTFSSYVVGWFRQAPGKEREFIGAISGSGESIYYAVSEKGRFTISRDNSKNTLYLQMNSLRPEDTAVYYCTADQEFGYLRFGRSEYWGQGTLVTVSS
notes: variant of IL17MS16A04; Kabat numbering
Regarding B6, in the experiment with human IL-17F [20], the “IC50 cell based assay hIL-17F” value was 14 nM. In addition, the “IC50 cell based assay cyno IL-17F” value in the experiment with Cynomolgus monkey IL-17F [21] worked out at 34.2 nM. The “IC50 fold difference vs WT” value in the experiment with human IL-17F [22] is 3.7 fold. The koff in the experiment with human IL-17F [23] stood at 0.000655 s⁻¹; with Cynomolgus monkey IL-17F [24], 0.00111 s⁻¹.

B7: 16A04 (VHH)
VHH: EVQLVESGGGLVQAGGSLRLSCAASGRTFSSYVVGWFRQAPGKEREFIGAISGSGDSIYYAVSEKDRFTISRDNGKNTLYLQMSSLKAEDTAVYYCTADQEFGYLRFGRSEYWGQGTQVTVSS
notes: Class 3; also called IL17MS16A04
Regarding B7, binding in the experiment with human IL-17F [25] was put at a Kd of 0.0194 nM. Further, the “% Biacore binding (IL-17F-NB)-IL-17RC” value with human IL-17F [26] was found to be 4.84%. The OD amounted to 0.019 OD with marmoset IL-17A; 0.043 OD with human IL-17A [27]; 0.008 OD with guinea pig IL-17A; 0.0015 OD with rat IL-17F; 1.64 OD with marmoset IL-17F; 1.74 OD with human IL-17F [28]. The molecule further displayed an OD in the experiment with mouse IL-17F of -0.0015 OD.

As a reminder, the koff is the rate constant with which the complex falls apart. What is called IC50 is the concentration at which inhibition is half-maximal. What is called Kd is a measure of binding affinity in units of concentration.
